The record followed here is patent publication US20150266963A1 (ARGEN X B V, published 2015).

Where two headings read alike, the source gives them in different places.

For orientation: IC50 means the concentration that inhibits the measured activity by half. Broadly, the EC50 (read off the curve) is the concentration at which the effect is half-maximal. A low value points to greater potency. What is called koff is the rate constant with which the complex falls apart.

The target of test [1] is T1, heat denatured recombinant CD70 (human, UniProt P32970 52-193, limits assumed).
T1 construct: Same recombinant CD70 as m1, denatured by heating for 5 minutes at 95 C and cooling on ice, coated directly on the plate; also called denatured CD70; not shown: Flag tag (anti-Flag mAb was the coating control) and further fusion parts
T1 sequence (looked up): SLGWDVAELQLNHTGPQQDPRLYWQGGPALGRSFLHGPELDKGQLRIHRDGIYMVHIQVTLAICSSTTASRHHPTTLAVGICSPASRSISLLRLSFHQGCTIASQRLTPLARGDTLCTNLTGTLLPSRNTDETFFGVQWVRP
Description: ELISA on coated heat denatured recombinant CD70, anti-human IgG-HRP. As for the experimental part:
The binding of CD70 mAbs to denatured recombinant CD70 was assessed by ELISA. Recombinant CD70 was denatured by heating for 5 minutes at 95° C., followed by immediate cooling on ice for 5 minutes. A microtiter plate was coated with 5 μg/ml CD70 with or without denaturation. The plate was blocked and the CD70 mAbs for testing were applied at 10 μg/ml. After washing, binding of the mAbs was detected using anti-human IgG-HRP. As a positive control for the coating, instead of using the CD70 mAbs, an anti-Flag mouse-derived mAb was applied and detection was with anti-mouse-HRP. TMB was used as a substrate and OD at 620 nm was measured. […] Amongst the other mAbs, some are also binding to denatured CD70 (fe 5F4, 9G2, 57B6).
Background: An ELISA detects its analyte on a solid surface through an enzyme-linked reagent.

Test [2] deals with T2, human CD70 expressed on the surface of cells (human, UniProt P32970 1-193).
T2 sequence (looked up): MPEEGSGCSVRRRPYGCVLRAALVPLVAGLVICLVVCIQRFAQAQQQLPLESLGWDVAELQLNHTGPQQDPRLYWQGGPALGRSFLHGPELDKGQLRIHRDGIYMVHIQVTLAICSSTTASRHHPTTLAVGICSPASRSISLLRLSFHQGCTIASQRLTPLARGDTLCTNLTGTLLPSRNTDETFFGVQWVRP
As to the kind of experiment: cell-based or functional assay.

Test [3] addresses T3, recombinant human CD70 (Flag-TNC-CD70) (human, UniProt P32970 39-193).
T3 construct: extracellular domain; Captured by anti-Flag mAb in ELISA; as 'recombinant human CD70' immobilised on Biacore CM5 chips; TNC is for trimerisation; also called recombinant CD70; human recombinant CD70; not shown: Flag tag and TNC trimerisation domain
T3 sequence (looked up): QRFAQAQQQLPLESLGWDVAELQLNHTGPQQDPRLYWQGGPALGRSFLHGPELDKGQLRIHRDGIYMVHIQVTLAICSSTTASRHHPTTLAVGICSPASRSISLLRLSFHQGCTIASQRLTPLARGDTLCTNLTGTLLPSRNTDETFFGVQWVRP
Description: inhibition ELISA; Flag-TNC-CD70 captured by anti-Flag mAb; competitor CD27-Fc. As to the method: (§1) From selected phage transfected into TG1, individual colonies were picked randomly for growth in 96 well plates. After IPTG induction according to standard protocols periplasmic fractions (penis) containing Fabs were prepared. […] In this assay, Flag-TNC-CD70 is captured by an anti-Flag mAb and binding of CD27-Fc is detected via a biotinylated anti-CD27 mAb and strep-HRP in the absence or presence of CD70 Fabs (FIGS. 2 and 3) or CD70 mAbs (FIG. 4). In FIG. 2B it can be seen that 27B3, which has an identical VH as 9D1, but contains a somewhat different light chain, seems to block binding of CD27 to CD70 more efficiently, which was in line with the better off rate of this Fab as measured on Biacore (data not shown). Table 3 indicates the blocking potency (expressed as IC50) for the various llama-human chimeric mAbs tested in the CD70 inhibition ELISA. […] FIG. 3 is a composite of an experiment testing llama CD70 Fabs for blocking activity (in the inhibition ELISA, see white bars) and for CD70 binding (binding ELISA, black bars). For the binding ELISA, Flag-TNC-CD70 is captured by an anti-Flag mAb and binding of the Fabs is detected using an anti-myc-HRP mAb, which recognizes the MYC tag fused to the C-terminus of the Fd fragment. For comparison purposes, known monoclonal antibodies to CD70 (SGN70 described in US 2010/0129362 A1, clone 1F6; and MDX69A7 described in WO2008/074004 FIGS. 5A and 5B) were tested in parallel. […] Of interest is clone 59D10, which as Fab has no blocking activity, but when converted into a chimeric IgG was antagonistic (see Table 3). Amino acid sequences of the VH and VL domains of binding and blocking llama-derived Fab clones are shown elsewhere herein (Tables 6-9).

Test [4] has as its target T2, human CD70 expressed on the surface of …. As to the kind of experiment: flow cytometry on 786-O cells, anti-human Fc-FITC. As to the method:
Fluorescence of 10,000 cells/condition was measured using a flow cytometer and the median fluorescence was plotted.
(In flow cytometry, cells or beads pass a laser one at a time.)

For test [5], the target named is T3, recombinant human CD70 (Flag-TNC-CD70). As to the kind of experiment: inhibition ELISA; Flag-TNC-CD70 captured by anti-Flag mAb; competitor CD27-Fc. As for the experimental part:
as §1
The source holds these as a separate data set.

Test [6] has as its target T2, human CD70 expressed on the surface of …. As to the kind of experiment: cell-based or functional assay. The source holds these as a separate data set.
Test [7] deals with T3, recombinant human CD70 (Flag-TNC-CD70). Description: Biacore; recombinant human CD70 on CM5 chip; Fab injected. In outline: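 Recombinant human CD70 amine-coupled to CM5 chip (~1000 RU). Trypsin-derived Fabs diluted 6-fold in HEPES-buffered saline with P20 injected at 30 μl/min; dissociation followed 10 minutes, surfaces regenerated with 10 mM NaOH; off-rates fitted after blank subtraction. CD27 off-rate from CD70 measured likewise.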
A general note: In SPR one partner is held on a chip, and binding of the other changes the refractive index at the surface.

For test [8] the target is unchanged. As to the kind of experiment: Biacore; CD70 coated CM5 chip; Fab in periplasmic fraction. As to the method: Phage eluted from rounds 3, 4 and 5 of selection were transfected into TG1 and plated clonally; individual clones were picked randomly for further analysis. Periplasmic fractions containing Fabs were prepared from IPTG induced small scale cultures the off rate of each Fab was determined using a CD70 coated CM5 chip in a Biacore binding assay. Clones with Fab having off rates similar to that of 27B3 were sequenced.

In test [9] the target is T2, human CD70 expressed on the surface of …. As to the kind of experiment: cell-based or functional assay. This is another data set of the same source.

B1: 6D5 (antibody, V domains shown)
VH: EVQLVQPGAELRKPGASVKVSCKASGYTFTSYYIDWVRQAPGQGLEWMGRIDPEDGGTKYAQKFQGRVTFTADASTSTAYVELSSLRSEDTAVYYCASRRRDFDYWGQGTQVTVSS
VL: QSALTQPSAVSVSLGQTARITCQGGNARFSSFAWYQQKPGQAPVQVIYYNTNRPSGIPARFSGSSSGGAATLTISGAQAEDEADYYCQSYESGNYVFGGGTTLTVLG
notes: the mAb format of 6D5 is not described in the text; also called 6D5 mAb
With B1, the binding result in test [1] is “no binding (tested: 10 µg/ml (text))”.

B2: 19G10 chimeric llama-human mAb (antibody, human IgG1, V domains shown)
VH: EVQLQESGGGVVQPGGSLRLSCAASGFTFDDYAMSWVRQAPGKGLEWVSSIYMYDSSTYYADSVKGRFTISTDNAKNTVYLQMNSLKSEDTAVYYCAKDINRSYGSSWSHFGPIFSSWGQGTQVTVSS
VL: NFMLTQPSAVSVSLGQTARITCQGGYYTHWYQQKPGQAPVLVIYVNNNRPSGIPERFSGSSSGNTATLTISGAQAEDEAAYYCQSGSSSTIPVFGGGTKLTVLG
Turning to B2, in test [2], the “IC50 (ng/ml), IL-8 secretion in Raji / HT1080-CD27 co-culture assay” value turned out to be 16 ng/mL. For the same molecule, in test [1], the binding result is listed as “no binding (tested: 10 µg/ml (text))”. The IC50 in [3] turned out to be 0.075 µg/mL.

B3: 9E1 chimeric llama-human mAb (antibody, human IgG1, V domains shown)
VH: EVQLQESGGGVVQPGGSLRLSCAASGFTFDDYAMSWVRQAPGKGLEWVSSIYMYDSSTYYADSVKGRFTISTDNAKNTVYLQMNSLKSEDTAVYYCAKDINRSYGSSWSHFGPIFSSWGQGTQVTVSS
VL: QAVVTQEPSLSVSPGGTVTLTCGLTSGSVTSSNYPDWYQQTPGQAPRLLIYNTNSRHSGVPSRFSGSISGNKAALTITGAQPEDEADYYCNLYMGSGGSKVFGGGTKLTVLG
On to B3, for which the “IC50 (ng/ml), IL-8 secretion in Raji / HT1080-CD27 co-culture assay” value in [2] worked out at 517 ng/mL. Moreover, the binding result in test [1] is “no binding (tested: 10 µg/ml (text))”. Moreover, the half-maximal inhibitory concentration (IC50) in test [3] stood at 1.4 µg/mL.

B4: 4D2 chimeric llama-human mAb (antibody, human IgG1, V domains shown)
VH: QVQLQESGPGLVKPSQTLSLACTVSGGSITTSYYYWSWIRQPPGKGLEWMGAIGSRGSTYYSPSLKTRTSISRDTSKNQFTLQLSSVTPEDTAVYYCARVTGEITYNSGSYYYTLNLFDYWGQGTQVTVSS
VL: QSVLTQPPSLSASPGSSVRLTCTLSSGNSVGNYDISWYQQKAGSPPRYLLYYYSDSYKNQGSGVPSRFSGSKDPSANAGLLLISGLQAEDEADYYCSVSNSGTYKPVFGGGSKLTVLG
Turning to B4, the “IC50 (ng/ml), IL-8 secretion in Raji / HT1080-CD27 co-culture assay” value in test [2] was 54 ng/mL. For the same molecule, in [4], the 50% effective concentration (EC50 (read off the curve)) is approximately 0.06 µg/mL. For the same molecule, in test [3], the IC50 worked out at 0.254 µg/mL.

B5: 9D1 chimeric llama-human mAb (antibody, human IgG1, V domains shown)
VH: EVQLVESGGGLVQPGGSLRLSCAASGFTFSVYYMNWVRQAPGKGLEWVSDINNEGGTTYYADSVKGRFTISRDNAKNTLTLQMNSLKPEDTALYYCVRDAGYSNHVPIFDSWGQGTQVIVAS
VL: QAVVTQEPSLSVSPGGTVTLTCGLSSGSVTSSHYPGWYQQTPGQAPRLLIFNTNSRHSGVPSRFSGSISGNKAALTITGAQPEDEADYYCALLNIDDGSTMFGGGTHLTVLG
notes: also called mAb 9D1
In the case of B5, in test [2], the “IC50 (ng/ml), IL-8 secretion in Raji / HT1080-CD27 co-culture assay” value stood at 29 ng/mL. Besides, in test [4], the “EC50 (read off the curve)” value was approximately 0.03 µg/mL. For the same molecule, the half-maximal inhibitory concentration (IC50) in test [5] was 730 pM; in test [3], 0.109 µg/mL.

B6: 53H1 mAb (full-length human IgG1, HEK293) (antibody, V domains shown)
VH: EVQLVESGGGLVQPGGSLRLSCAASGFTFSVYYMNWVRQAPGKGLEWVSDINNEGGTTYYADSVKGRFTISRDNSKNSLYLQMNSLRAEDTAVYYCARDAGYSNHVPIFDSWGQGTLVTVSS
VL: QTVVTQEPSFSVSPGGTVTLTCGLKSGSVTSDNFPTWYQQTPGQAPRLLIYNTNTRHSGVPDRFSGSILGNKAALTITGAQADDEAEYFCALFISNPSVEFGGGTQLTVLG
Regarding B6, the “Raji co-culture assay IC50 relative to 27B3” value in test [6] was 1.6 fold of 27B3.

B7: 27B3 Fab (Fab, V domains shown)
VH: EVQLVESGGGLVQPGGSLRLSCAASGFTFSVYYMNWVRQAPGKGLEWVSDINNEGGTTYYADSVKGRFTISRDNAKNTLTLQMNSLKPEDTALYYCVRDAGYSNHVPIFDSWGQGTQVIVAS
VL: QAVVTQEPSLTVSPGGTVTLTCGLKSGSVTSTNFPTWYQQTPGQAPRLLIYNTNTRHSGVPSRFSGSISENKAALTITGAQPEDEAEYFCALFISNPSVEFGGGTQLTVLS
notes: Llama-derived Fab; also called Fab 27B3
Turning to B7, the koff in test [7] came out at 8e-05 s⁻¹; in test [8], 0.00014 s⁻¹. Besides, the IC50 in [5] is approximately 400 pM.

B8: 5F4 chimeric llama-human mAb (antibody, human IgG1, V domains shown)
VH: EVQVQESGGGLVHPGGSLKLSCAASGFTFDTYAMSWVRQAPGKGLEWVSAISWSGGETFYAESMKGRFTISRNNAKNTLYLQMNSLKSEDTAVYYCARGMGLAEGLTDWGQGTQVTVSS
VL: QAVVTHPPSLSASPGSSVRLTCTLISGDNIGGYDISWYQQKTGSPPRYLLYYYSDSYKHQSSGVPSRFSGSKDASANAGLLLISGLQSEDEADYYCSAYKSGSYKAPVFGGGTHLTVLG
For the molecule B8, the “IC50 (ng/ml), IL-8 secretion in Raji / HT1080-CD27 co-culture assay” value in test [2] is 32 ng/mL. In addition, the “EC50 (read off the curve)” value in [4] was approximately 0.2 µg/mL. Besides, the IC50 in test [3] is 0.296 µg/mL.

B9: 9G2 chimeric llama-human mAb (antibody, human IgG1, V domains shown)
VH: QVQLVESGGGLMQPGGSLRLSCAASGFTFSSSAMSWVRQAPGKGLEWVSSIYSDSSYTYYADSVKSRFTISTDNAKNTLYLQMNSLKPDDTAVYYCAGSSDYEGSFASWGQGTQVTVSS
VL: QSVVTQPPSLSASPGSSVRLTCTLSSGNSVGNYDISWYQQKAGSPPRYLLYYYSDSVKHQGSGVPSRFSGSSDASANAGLLLISGLQPEDEADYYCSAYKSGSHVFGGGTKLTVLG
In the case of B9, the “IC50, IL-8 secretion in Raji / HT1080-CD27 co-culture assay” value in test [9] is 20 pM. Moreover, in test [2], the “IC50 (ng/ml), IL-8 secretion in Raji / HT1080-CD27 co-culture assay” value came out at 3 ng/mL. The concentration giving a half-maximal response (EC50 (read off the curve)) in [4] was approximately 0.1 µg/mL. Further, the IC50 in test [3] was found to be 0.04 µg/mL.
